B1: CPEB3 Ribozyme (parent)
chain: GGGGGCCACAGCAGAAGCGUUCACGUCGCGGCCCCUGUCAGAUUCUGGUGAAUCUGCGAAUUCUGCUGU

Variants of: B1
Test: self-cleavage, relative activity (ratio to wild type); higher = more cleavage; co-transcriptional
Work on A13C G41C yielded a self-cleavage of 0.214. A13C G41U gave a self-cleavage of 0.349. Work on A13C C63U yielded a self-cleavage of 0.732. Variant A13C C63A has a self-cleavage of 0.467. Work on A13C C63G yielded a self-cleavage of 0.366. A13G C27U showed a self-cleavage of 0.168. Variant A13C U43G has a self-cleavage of 0.32. For A13C U43A, the self-cleavage was 0.514. For A13C G56A, the self-cleavage was 0.625. Work on A13C G56U yielded a self-cleavage of 0.51. For A13C G56C, the self-cleavage was 0.367. Variant A13C U67G has a self-cleavage of 0.824. A13C G28U showed a self-cleavage of 0.116. Work on A13C G28A yielded a self-cleavage of 0.108. In the case of A13C G28C, the self-cleavage is reported as 0.149. Work on A13C C35G yielded a self-cleavage of 0.323. Work on A13C C35U yielded a self-cleavage of 0.751. Variant C12U G56A has a self-cleavage of 0.844. For C12U U61A, the self-cleavage was 0.822. Variant A13C U69G has a self-cleavage of 0.96. For C12U U53A, the self-cleavage was 0.909. Variant C12U U53G has a self-cleavage of 0.771. For A13C G31A, the self-cleavage was 0.654. A13C G31U showed a self-cleavage of 0.508. A13G C18A showed a self-cleavage of 0.0625. For A13G C18G, the self-cleavage was 0.169. Work on A13C C24U yielded a self-cleavage of 0.543. Variant A13C C24A has a self-cleavage of 0.402. For A13C G68C, the self-cleavage was 0.917. For A13C G68A, the self-cleavage was 0.921. In the case of A13C U53A, the self-cleavage is reported as 0.579. A13C G17A gave a self-cleavage of 0.0886. A13C G17C showed a self-cleavage of 0.122. With A13C U49C the self-cleavage was 0.842. With A13C U49G the self-cleavage was 0.933. Variant A13C U49A has a self-cleavage of 0.922. A13C C66G showed a self-cleavage of 0.862. Variant A13C C66U has a self-cleavage of 0.465. With A13C C66A the self-cleavage was 0.48. Work on A13C G25C yielded a self-cleavage of 0.0875. Variant C12U U49C has a self-cleavage of 0.971. C12U U49G showed a self-cleavage of 1. A13C U61C gave a self-cleavage of 0.281. Variant A13C C27U has a self-cleavage of 0.15. Variant A13C C27A has a self-cleavage of 0.145. A13G A15C gave a self-cleavage of 0.196. A13G A15G gave a self-cleavage of 0.82. Variant C12U U44C has a self-cleavage of 0.906. In the case of C12U U62A, the self-cleavage is reported as 0.819. Work on C12U U62G yielded a self-cleavage of 0.542. Variant A13C A52U has a self-cleavage of 0.837. For A13C A52C, the self-cleavage was 0.77. A13C C32A gave a self-cleavage of 0.55. With A13G A59U the self-cleavage was 0.57. Work on A13G A59G yielded a self-cleavage of 0.946. With A13G A59C the self-cleavage was 0.522. In the case of C12U U20A, the self-cleavage is reported as 0.146. With C12U U20C the self-cleavage was 0.165. C12U G50C showed a self-cleavage of 0.974. A13C G37U gave a self-cleavage of 0.225. A13C G37A showed a self-cleavage of 0.14. A13C U62G showed a self-cleavage of 0.355. With A13C U21A the self-cleavage was 0.772. Variant A13C U21C has a self-cleavage of 0.496. A13C U21G showed a self-cleavage of 0.135. Work on A13G A42U yielded a self-cleavage of 0.74. Work on A13C U46C yielded a self-cleavage of 0.761. Work on C12U U26C yielded a self-cleavage of 0.996. With C12U U26A the self-cleavage was 0.91. For C12U U26G, the self-cleavage was 0.925. A13C C29A showed a self-cleavage of 0.21. A13C C29U gave a self-cleavage of 0.0773. With C12U G68U the self-cleavage was 0.995. Work on C12U G68A yielded a self-cleavage of 0.997. A13C A40U showed a self-cleavage of 0.23. With A13C A40C the self-cleavage was 0.247. A13G A23C gave a self-cleavage of 0.781. In the case of A13C C18A, the self-cleavage is reported as 0.181. With A13C C18U the self-cleavage was 0.262. For A13C C18G, the self-cleavage was 0.0963. For A13G A60U, the self-cleavage was 0.282. For A13G A60G, the self-cleavage was 0.66. For A13G A60C, the self-cleavage was 0.268. In the case of C12U U43G, the self-cleavage is reported as 0.706. C12U U43C showed a self-cleavage of 0.928. Work on C12U G58A yielded a self-cleavage of 1.01. C12U G58U showed a self-cleavage of 0.991. A13C U36C gave a self-cleavage of 0.62. Variant A13C G14U has a self-cleavage of 0.22. Variant A13C G14A has a self-cleavage of 0.251. A13C G14C showed a self-cleavage of 0.228. With A13C G47U the self-cleavage was 0.959. A13C G47C showed a self-cleavage of 0.928. For A13C U26C, the self-cleavage was 0.692. With A13C U26A the self-cleavage was 0.615. A13C U26G gave a self-cleavage of 0.113. Work on A13C A60G yielded a self-cleavage of 0.384. Variant A13C A60C has a self-cleavage of 0.301. Work on A13C G50C yielded a self-cleavage of 0.787. For A13C G50U, the self-cleavage was 0.909. C12U U69C gave a self-cleavage of 1.07. For A13C G58A, the self-cleavage was 0.754. Work on A13C G58U yielded a self-cleavage of 0.933. A13C G58C showed a self-cleavage of 0.862. Work on A13G A52C yielded a self-cleavage of 0.827. In the case of A13G A52G, the self-cleavage is reported as 1.02. For A13C A16U, the self-cleavage was 0.185. Work on A13C A16G yielded a self-cleavage of 0.682. A13C A16C gave a self-cleavage of 0.102. C12U U55G gave a self-cleavage of 0.616. C12U U55C showed a self-cleavage of 0.83. Variant A13C C34G has a self-cleavage of 0.498. Work on A13C U64G yielded a self-cleavage of 0.922. A13C U64A showed a self-cleavage of 0.948. A13C C54U showed a self-cleavage of 0.773. Work on A13C C54G yielded a self-cleavage of 0.45. A13C C54A gave a self-cleavage of 0.414. Variant A13C U44G has a self-cleavage of 0.802. Work on A13C U44A yielded a self-cleavage of 0.7. A13C U44C showed a self-cleavage of 0.51. With A13C U55C the self-cleavage was 0.439. In the case of A13G A40U, the self-cleavage is reported as 0.455. With A13G A40G the self-cleavage was 0.831. In the case of A13C G19U, the self-cleavage is reported as 0.138. C12U U64A showed a self-cleavage of 0.697. C12U U64C showed a self-cleavage of 0.785. C12U U64G gave a self-cleavage of 0.757. A13G C22G gave a self-cleavage of 0.199. Variant A13G C24U has a self-cleavage of 0.712. Work on A13G C24A yielded a self-cleavage of 0.54. In the case of A13C U20A, the self-cleavage is reported as 0.149. A13C U20C gave a self-cleavage of 0.128. Variant A13C C57A has a self-cleavage of 0.276. Work on C12U U21G yielded a self-cleavage of 0.537. In the case of C12U U21A, the self-cleavage is reported as 0.947. With A13C A23G the self-cleavage was 0.507. For A13C A23U, the self-cleavage was 0.788. For A13C A59G, the self-cleavage was 0.794. For A13C A59U, the self-cleavage was 0.479. A13C A59C showed a self-cleavage of 0.395. Variant A13C G30U has a self-cleavage of 0.281. Variant A13C G30C has a self-cleavage of 0.451. A13G A51C gave a self-cleavage of 0.874. With A13G C29A the self-cleavage was 0.42. Work on A13G C29G yielded a self-cleavage of 0.126. Variant A13C C22U has a self-cleavage of 0.209. For A13C A51G, the self-cleavage was 0.903. Variant A13C G65A has a self-cleavage of 0.431. In the case of A13C G65C, the self-cleavage is reported as 0.278. In the case of C12U U38G, the self-cleavage is reported as 0.277. Variant C12U U38C has a self-cleavage of 0.921. For A13C C33A, the self-cleavage was 0.593. For A13C C39U, the self-cleavage was 0.555. Work on C12U U36G yielded a self-cleavage of 0.193. Variant C12U U36A has a self-cleavage of 0.231. In the case of A13C A42U, the self-cleavage is reported as 0.561. With A13C A42G the self-cleavage was 0.506. With C12U U67A the self-cleavage was 0.948. C12U U67G gave a self-cleavage of 0.938. Work on C12U U46C yielded a self-cleavage of 0.939. For C12U U46A, the self-cleavage was 1. A13C A15G gave a self-cleavage of 0.662. Variant C12U G65A has a self-cleavage of 1. C12U G65C gave a self-cleavage of 0.864. Variant C12U G65U has a self-cleavage of 0.948. A13C C45A gave a self-cleavage of 0.761. A13C C45G showed a self-cleavage of 0.835.

Reference: the RNAGym collection of RNA variant scans (doi:10.7554/elife.80360)
